These results are taken from paper PMC6347470 (Immunity, 2018).

This data set deals with the molecule itself. The data set can be described thus: nonreducing PAGE and immunoblotting.

B1: STING (natural protein, mouse (endogenous in BMDMs), UniProt Q3TBT3 1-378, looked up)
chain: MPYSNLHPAIPRPRGHRSKYVALIFLVASLMILWVAKDPPNHTLKYLALHLASHELGLLLKNLCCLAEELCHVQSRYQGSYWKAVRACLGCPIHCMAMILLSSYFYFLQNTADIYLSWMFGLLVLYKSLSMLLGLQSLTPAEVSAVCEEKKLNVAHGLAWSYYIGYLRLILPGLQARIRMFNQLHNNMLSGAGSRRLYILFPLDCGVPDNLSVVDPNIRFRDMLPQQNIDRAGIKNRVYSNSVYEILENGQPAGVCILEYATPLQTLFAMSQDAKAGFSREDRLEQAKLFCRTLEEILEDVPESRNNCRLIVYQEPTDGNSFSLSQEVLRHIRQEEKEEVTMNAPMTSVAPPPSVLSQEPRLLISGMDQPLPLRTDLI
For the protein B1, the “stoichiometry N” value came to 2.
